Results published in US20130273068A1 (published 2013).

Biological target: T1, human ADP-ribosyl cyclase 2 (BST1; CD157) (human, UniProt Q10588 33-293)
T1 construct: Endogenous BST1 on human cells (A549, H226, U937, AML blasts); also called Bone marrow stromal antigen 1; cell-surface human BST1
T1 sequence: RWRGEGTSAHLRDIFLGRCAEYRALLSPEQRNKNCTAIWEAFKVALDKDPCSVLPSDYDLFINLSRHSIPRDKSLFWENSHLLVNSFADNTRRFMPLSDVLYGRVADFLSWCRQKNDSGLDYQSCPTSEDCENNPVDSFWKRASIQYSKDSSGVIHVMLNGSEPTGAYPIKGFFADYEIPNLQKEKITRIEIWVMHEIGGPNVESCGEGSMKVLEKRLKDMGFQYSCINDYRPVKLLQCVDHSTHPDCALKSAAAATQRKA
Assay: flow cytometry on A549 and H226 cells
Method: The specificity of antibodies against the BST1 selected in Example 2 was tested by flow cytometry. To test the ability of the antibodies to bind to the cell surface BST1 protein, the antibodies were incubated with the BST1-expressing cells, A549 and H226, from human lung adenocarcinoma and human lung squamous carcinoma, respectively. Cells were washed in FACS buffer (DPBS, 2% FBS), centrifuged and resuspended in […] of the diluted primary BST1 antibody (also diluted in FACS buffer). The antibody-A549 complex was incubated on ice for 60 min and then washed twice with FACS buffer as described above. The cell-antibody pellet was resuspended in 100 μl of the diluted secondary antibody (also diluted in FACS buffer) and incubated on ice for 60 min on ice. The pellet was washed as before and resuspended in […] FACS buffer. The samples were loaded onto the BD FACScanto II flow sytometer and the data analyzed using the BD FACSdiva software.

B1: BST1_A3 (Fab, V domains shown)
VH: QVQLQQSRAELVMPGASVKMSCKTSGYTFSDYWVHWVRQRPGQGLEWIGAIDGSDTFNDYSQKFKGRATLTVDESSSTVYMQLSSLTSEDSAVYYCARGGLLQYWGQGTTLTVSS
VL: DIQLTQSPASLSASVGETVTITCRASENIYSYLAWYQQKQGKSPQLLVYNTKTLGEGVPSRFSGSGSGTQFSLKINSLQPEDFGSYYCQHHYGTPFTFGSGTKLEIKR
binding result: binds
